Results from US20180169257A1 (Seagen, published 2018).

T1: human NTB-A (human, UniProt Q96DU3 22-332)
T1 sequence: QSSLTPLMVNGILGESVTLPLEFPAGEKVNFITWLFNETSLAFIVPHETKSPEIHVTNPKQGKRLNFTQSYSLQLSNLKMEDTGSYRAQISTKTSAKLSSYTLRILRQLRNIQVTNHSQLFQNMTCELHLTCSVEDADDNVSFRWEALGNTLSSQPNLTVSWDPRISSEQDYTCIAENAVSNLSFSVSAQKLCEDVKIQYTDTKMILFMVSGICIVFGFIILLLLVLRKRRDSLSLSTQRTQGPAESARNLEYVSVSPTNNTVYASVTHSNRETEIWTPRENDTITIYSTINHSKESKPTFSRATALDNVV


Columns and labels:
human NTB-A [1] = biological target: T1, human NTB-A; assay: cell-based or functional assay
human NTB-A [2] = biological target: T1, human NTB-A; assay: saturation binding of Alexa Fluor 647-labeled antibody on Ramos cells, flow cytometry
Description: (§1) Antigen positive Ramos cells were plated at 1×10⁵ cells per well in a 96 well V-bottom plate (Thermo Scientific, Rochester, N.Y.). Three-fold serial dilutions of 2× concentrated antibodies were prepared in FACs buffer (PBS+2% fetal bovine serum) and were added to the cells in duplicate. The antibody solutions were incubated with cells for 1 hour on ice, protected from light. The cells were washed twice with FACs buffer and analyzed on the LSRII flow cytometer (BD BioSciences, San Jose, Calif.). KD values were determined with GraphPad Prism software (La Jolla, Calif.). Anti-human NTB-A antibodies h20F3_HDLD and chimeric 20F3 were tested for binding to 293-F17 cells overexpressing cynomolgus-NTB-A. 293-F17/cynomolgus-NTB-A cells were plated at 5×10⁵ cells/well in FACS buffer (PBS+2% fetal bovine serum+0.02% azide) and incubated with 20 μg/mL antibody for 30 minutes on ice. The cells were washed twice and stained with 30 μg/mL goat anti-human IgG-PE (Jackson ImmunoResearch, West Grove, Pa.) for 30 minutes, on ice and protected from light. Cells were again washed twice with FACs buffer. Stained cells were analyzed on the FACs Calibur flow cytometer (BD BioSciences, San Jose, Calif.).

human NTB-A [3] = biological target: T1, human NTB-A; assay: antigen binding competition assay on Ramos cells
Description: (§2) Antigen positive Ramos cells were plated at 1×10⁵ cells per well in a 96 well V-bottom plate (Thermo Scientific, Rochester, N.Y.). Fifty-fold serial dilutions of antibodies were prepared in FACs buffer (PBS+2% fetal bovine serum) and were added to the cells in duplicate. The antibody solutions were incubated with cells for 1 hour on ice, protected from light. The cells were washed twice with FACs buffer and analyzed on the LSRII flow cytometer (BD BioSciences, San Jose, Calif.). EC50 values were determined with GraphPad Prism software (La Jolla, Calif.).

human NTB-A [4] = biological target: T1, human NTB-A; assay: cell-based or functional assay; remark: listed apart in the source
human NTB-A [5] = biological target: T1, human NTB-A; assay: competition flow cytometry on Ramos cells; competitor 5 nM mouse 20F3-Alexa Fluor 647
Description: as §2

human NTB-A [6] = biological target: T1, human NTB-A; assay: saturation binding of Alexa Fluor 647-labeled antibody (h20F3_HDLD-AF647) on Ramos cells, flow cytometry
Description: as §1

Binder | Maximum % Phagocytosis (ADCP), Raji cell line (human NTB-A [4]) [%] | Maximum % Phagocytosis (ADCP), WIL2-S cell line (human NTB-A [4]) [%] | Maximum % Phagocytosis (ADCP), normal human T cells (human NTB-A [4]) [%] | IC50, 96 hour cytotoxicity (Cell-Titer Glo), resting human B cells, donor 1 (human NTB-A [1]) [µg/mL] | IC50, 96 hour cytotoxicity (Cell-Titer Glo), resting human B cells, donor 2 (human NTB-A [1]) [µg/mL] | IC50, 96 hour cytotoxicity (Cell-Titer Glo), resting human B cells, donor 3 (human NTB-A [1]) [µg/mL] | also measured
c20F3-1910(2) ADC (other, PBD dimer drug-linker 1910, load 2 by its name; attachment site not stated for the chimeric antibody) VH: QIQLVQSGPELKKPGETVKISCKASGYTFTNYGMNWVKQAPGKDLKWMGWINTYSGEPRYADDFKGRFAFSLEKSANTAYLQINNLKNEDMATYFCARDYGRWYFDVWGTGTTVTVSS VL: QIVLSQSPAILSASPGEKVTMTCRASSSVSHMHWYQQKPGSSPKPWIYATSNLASGVPARFSGSGSGTSYSLTISRVEAEDAATYYCQQWSSTPRTFGGGTKLEIKR |  |  |  | 1.47 | 1.27 | 3.42 | IC50, 96 hour cytotoxicity (Cell-Titer Glo), resting human T cells, donor 4 (human NTB-A [1]): > 10 µg/mL; IC50, 96 hour cytotoxicity (Cell-Titer Glo), resting human T cells, donor 5 (human NTB-A [1]): > 10 µg/mL; IC50, 96 hour cytotoxicity (Cell-Titer Glo), resting human T cells, donor 6 (human NTB-A [1]): > 10 µg/mL
c20F3-vcMMAE(4) ADC (other, MMAE via a cathepsin-cleavable valine-citrulline linker, load 4 by its name; attachment sites not stated) VH: QIQLVQSGPELKKPGETVKISCKASGYTFTNYGMNWVKQAPGKDLKWMGWINTYSGEPRYADDFKGRFAFSLEKSANTAYLQINNLKNEDMATYFCARDYGRWYFDVWGTGTTVTVSS VL: QIVLSQSPAILSASPGEKVTMTCRASSSVSHMHWYQQKPGSSPKPWIYATSNLASGVPARFSGSGSGTSYSLTISRVEAEDAATYYCQQWSSTPRTFGGGTKLEIKR |  |  |  | > 10 | > 10 | > 10 | 
chimeric 20F3 (antibody, V domains shown, It was detected with goat anti-human IgG, so the constant regions are human, but they are not specified) VH: QIQLVQSGPELKKPGETVKISCKASGYTFTNYGMNWVKQAPGKDLKWMGWINTYSGEPRYADDFKGRFAFSLEKSANTAYLQINNLKNEDMATYFCARDYGRWYFDVWGTGTTVTVSS VL: QIVLSQSPAILSASPGEKVTMTCRASSSVSHMHWYQQKPGSSPKPWIYATSNLASGVPARFSGSGSGTSYSLTISRVEAEDAATYYCQQWSSTPRTFGGGTKLEIKR |  |  |  |  |  |  | Kd (human NTB-A [2]): 1.68 nM

Continued, in another order:

Maximum % Phagocytosis (ADCP), Raji cell line (human NTB-A [4]) [%] | Maximum % Phagocytosis (ADCP), WIL2-S cell line (human NTB-A [4]) [%] | Maximum % Phagocytosis (ADCP), normal human T cells (human NTB-A [4]) [%] | Binder | IC50, 96 hour cytotoxicity (Cell-Titer Glo), resting human B cells, donor 1 (human NTB-A [1]) [µg/mL] | IC50, 96 hour cytotoxicity (Cell-Titer Glo), resting human B cells, donor 2 (human NTB-A [1]) [µg/mL] | IC50, 96 hour cytotoxicity (Cell-Titer Glo), resting human B cells, donor 3 (human NTB-A [1]) [µg/mL] | also measured
48 | 45 | 42 | humanized 20F3 HDLD antibody (antibody, V domains shown, also called h20F3_HDLD; h20F3_HDLD-AF647) VH: QIQLVQSGSELKKPGASVKVSCKASGYTFTNYGMNWVRQAPGQDLKWMGWINTYSGEPRYADDFKGRFVFSLDKSVNTAYLQISSLKAEDTAVYYCARDYGRWYFDVWGQGTTVTVSS VL: QIVLSQSPATLSLSPGERATMSCRASSSVSHMHWYQQKPGQAPRPWIYATSNLASGVPARFSGSGSGTDYTLTISSLEPEDFAVYYCQQWSSTPRTFGGGTKVEIKR |  |  |  | EC50 (human NTB-A [3]): ~12 nM; EC50 (human NTB-A [5]): 3 nM; Kd (human NTB-A [6]): 2.2 nM
44 | 45 | 33 | h20F3ec (antibody, human IgG1, kappa, V domains shown) VH: QIQLVQSGSELKKPGASVKVSCKASGYTFTNYGMNWVRQAPGQDLKWMGWINTYSGEPRYADDFKGRFVFSLDKSVNTAYLQISSLKAEDTAVYYCARDYGRWYFDVWGQGTTVTVSS VL: QIVLSQSPATLSLSPGERATMSCRASSSVSHMHWYQQKPGQAPRPWIYATSNLASGVPARFSGSGSGTDYTLTISSLEPEDFAVYYCQQWSSTPRTFGGGTKVEIKR |  |  |  | 
